# In patent US20140087995A1 (published 2014):
# Numbered stars: 1 amine (or outer) side, 2 acyl side, 3 side chain; on linkers, the order of the positions; unused ones are H or OH. Bridge positions count the residues as written; N and C are the ends. Side chains are listed from the residue outwards. Ends that are not written are not given here. * marks the point of attachment. C20 diacid = O=C(O)CCCCCCCCCCCCCCCCCCC(=O)*; γGlu = O=C(O)[C@H](CCC(=O)[*:2])N[*:1]; AEEA = NCCOCCOCC(=O)O
# T1: human calcitonin receptor (human, UniProt P30988 25-474)
# T1 construct: whole, on cells; also called hCTR; hCT
# T1 sequence (looked up): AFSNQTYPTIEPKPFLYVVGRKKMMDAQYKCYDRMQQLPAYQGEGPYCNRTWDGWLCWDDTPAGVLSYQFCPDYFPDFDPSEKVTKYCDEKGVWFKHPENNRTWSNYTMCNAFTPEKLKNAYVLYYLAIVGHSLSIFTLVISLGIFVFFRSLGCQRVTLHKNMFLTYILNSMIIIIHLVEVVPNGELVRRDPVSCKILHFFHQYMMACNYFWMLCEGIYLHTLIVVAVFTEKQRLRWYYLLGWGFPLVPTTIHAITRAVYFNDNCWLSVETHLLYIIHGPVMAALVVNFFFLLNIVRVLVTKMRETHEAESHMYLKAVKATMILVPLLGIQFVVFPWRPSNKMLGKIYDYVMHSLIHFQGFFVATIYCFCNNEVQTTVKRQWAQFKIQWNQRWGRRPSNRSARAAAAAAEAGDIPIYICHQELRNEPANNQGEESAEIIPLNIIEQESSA
# Columns and labels:
# [1] = molecular target: T1, human calcitonin receptor; experiment: SPA competition binding, membranes with human calcitonin receptor, displacement of 125I-calcitonin (Assay VII)
# Method in brief: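 BHK hCTR membranes 35 ng/μL + SPA beads 0.05 mg/well; buffer 50 mM Hepes pH 7.4, 1 mM CaCl2, 5 mM MgCl₂, 0.1% OA, 0.02% Tween20. 120 min, 25° C., shaking. Scintillation count; IC50 by one-site binding competition.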
# [2] = molecular target: T1, human calcitonin receptor; experiment: ratio of IC50 at hCTR to IC50 at the human amylin receptor (reference)
# Method in brief: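 Competition binding by SPA with cell membranes (35 ng/μL) and SPA beads in 50 mM Hepes pH 7.4 with 1 mM CaCl2, 5 mM MgCl2, 0.1% OA and 0.02% Tween20. Incubated 120 min at 25 °C with shaking, then counted.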
IC50 [1],Ratio hCT/hAmylin binding [2],Binder
0.0155 µM,26,"{C20 diacid-γGlu-γGlu}-KCNTATCATQRLAEFLRHSSPNFGAIPSSTNVGSNTY-NH2 (disulfide 2-7; SMILES CC[C@H](C)[C@H](NC(=O)[C@H](C)NC(=O)CNC(=O)[C@H](Cc1ccccc1)NC(=O)[C@H](CC(N)=O)NC(=O)[C@@H]1CCCN1C(=O)[C@H](CO)NC(=O)[C@H](CO)NC(=O)[C@H](Cc1c[nH]cn1)NC(=O)[C@H](CCCNC(=N)N)NC(=O)[C@H](CC(C)C)NC(=O)[C@H](Cc1ccccc1)NC(=O)[C@H](CCC(=O)O)NC(=O)[C@H](C)NC(=O)[C@H](CC(C)C)NC(=O)[C@H](CCCNC(=N)N)NC(=O)[C@H](CCC(N)=O)NC(=O)[C@@H](NC(=O)[C@H](C)NC(=O)[C@@H]1CSSC[C@H](NC(=O)[C@H](CCCCN)NC(=O)CC[C@H](NC(=O)CC[C@H](NC(=O)CCCCCCCCCCCCCCCCCCC(=O)O)C(=O)O)C(=O)O)C(=O)N[C@@H](CC(N)=O)C(=O)N[C@@H]([C@@H](C)O)C(=O)N[C@@H](C)C(=O)N[C@@H]([C@@H](C)O)C(=O)N1)[C@@H](C)O)C(=O)N1CCC[C@H]1C(=O)N[C@@H](CO)C(=O)N[C@@H](CO)C(=O)N[C@H](C(=O)N[C@@H](CC(N)=O)C(=O)N[C@H](C(=O)NCC(=O)N[C@@H](CO)C(=O)N[C@@H](CC(N)=O)C(=O)N[C@H](C(=O)N[C@@H](Cc1ccc(O)cc1)C(N)=O)[C@@H](C)O)C(C)C)[C@@H](C)O, also called compound 15)"
0.00487 µM,17.7,"K([γGlu-C20 diacid])RCNTATCATQRLANFLRHSSPNFGAIPSSTNVGSHTY-NH2 (disulfide 3-8; N-terminus assumed; SMILES CC[C@H](C)[C@H](NC(=O)[C@H](C)NC(=O)CNC(=O)[C@H](Cc1ccccc1)NC(=O)[C@H](CC(N)=O)NC(=O)[C@@H]1CCCN1C(=O)[C@H](CO)NC(=O)[C@H](CO)NC(=O)[C@H](Cc1c[nH]cn1)NC(=O)[C@H](CCCNC(=N)N)NC(=O)[C@H](CC(C)C)NC(=O)[C@H](Cc1ccccc1)NC(=O)[C@H](CC(N)=O)NC(=O)[C@H](C)NC(=O)[C@H](CC(C)C)NC(=O)[C@H](CCCNC(=N)N)NC(=O)[C@H](CCC(N)=O)NC(=O)[C@@H](NC(=O)[C@H](C)NC(=O)[C@@H]1CSSC[C@H](NC(=O)[C@H](CCCNC(=N)N)NC(=O)[C@@H](N)CCCCNC(=O)CC[C@H](NC(=O)CCCCCCCCCCCCCCCCCCC(=O)O)C(=O)O)C(=O)N[C@@H](CC(N)=O)C(=O)N[C@@H]([C@@H](C)O)C(=O)N[C@@H](C)C(=O)N[C@@H]([C@@H](C)O)C(=O)N1)[C@@H](C)O)C(=O)N1CCC[C@H]1C(=O)N[C@@H](CO)C(=O)N[C@@H](CO)C(=O)N[C@H](C(=O)N[C@@H](CC(N)=O)C(=O)N[C@H](C(=O)NCC(=O)N[C@@H](CO)C(=O)N[C@@H](Cc1c[nH]cn1)C(=O)N[C@H](C(=O)N[C@@H](Cc1ccc(O)cc1)C(N)=O)[C@@H](C)O)C(C)C)[C@@H](C)O, extended by one residue at the N-terminus; also called compound 44)"
0.0155 µM,44.9,"{C20 diacid-γGlu}-GRCNTATCATQRLANFLRHSSPNFGAIPSSTNVGSHTY-NH2 (disulfide 3-8; SMILES CC[C@H](C)[C@H](NC(=O)[C@H](C)NC(=O)CNC(=O)[C@H](Cc1ccccc1)NC(=O)[C@H](CC(N)=O)NC(=O)[C@@H]1CCCN1C(=O)[C@H](CO)NC(=O)[C@H](CO)NC(=O)[C@H](Cc1c[nH]cn1)NC(=O)[C@H](CCCNC(=N)N)NC(=O)[C@H](CC(C)C)NC(=O)[C@H](Cc1ccccc1)NC(=O)[C@H](CC(N)=O)NC(=O)[C@H](C)NC(=O)[C@H](CC(C)C)NC(=O)[C@H](CCCNC(=N)N)NC(=O)[C@H](CCC(N)=O)NC(=O)[C@@H](NC(=O)[C@H](C)NC(=O)[C@@H]1CSSC[C@H](NC(=O)[C@H](CCCNC(=N)N)NC(=O)CNC(=O)CC[C@H](NC(=O)CCCCCCCCCCCCCCCCCCC(=O)O)C(=O)O)C(=O)N[C@@H](CC(N)=O)C(=O)N[C@@H]([C@@H](C)O)C(=O)N[C@@H](C)C(=O)N[C@@H]([C@@H](C)O)C(=O)N1)[C@@H](C)O)C(=O)N1CCC[C@H]1C(=O)N[C@@H](CO)C(=O)N[C@@H](CO)C(=O)N[C@H](C(=O)N[C@@H](CC(N)=O)C(=O)N[C@H](C(=O)NCC(=O)N[C@@H](CO)C(=O)N[C@@H](Cc1c[nH]cn1)C(=O)N[C@H](C(=O)N[C@@H](Cc1ccc(O)cc1)C(N)=O)[C@@H](C)O)C(C)C)[C@@H](C)O, extended by one residue at the N-terminus; also called compound 47)"
0.00953 µM,48.9,"{C20 diacid-γGlu}-GRCNTATCATQRLANFLRHSSPNFGAIPSSTNVGSNTY-NH2 (disulfide 3-8; SMILES CC[C@H](C)[C@H](NC(=O)[C@H](C)NC(=O)CNC(=O)[C@H](Cc1ccccc1)NC(=O)[C@H](CC(N)=O)NC(=O)[C@@H]1CCCN1C(=O)[C@H](CO)NC(=O)[C@H](CO)NC(=O)[C@H](Cc1c[nH]cn1)NC(=O)[C@H](CCCNC(=N)N)NC(=O)[C@H](CC(C)C)NC(=O)[C@H](Cc1ccccc1)NC(=O)[C@H](CC(N)=O)NC(=O)[C@H](C)NC(=O)[C@H](CC(C)C)NC(=O)[C@H](CCCNC(=N)N)NC(=O)[C@H](CCC(N)=O)NC(=O)[C@@H](NC(=O)[C@H](C)NC(=O)[C@@H]1CSSC[C@H](NC(=O)[C@H](CCCNC(=N)N)NC(=O)CNC(=O)CC[C@H](NC(=O)CCCCCCCCCCCCCCCCCCC(=O)O)C(=O)O)C(=O)N[C@@H](CC(N)=O)C(=O)N[C@@H]([C@@H](C)O)C(=O)N[C@@H](C)C(=O)N[C@@H]([C@@H](C)O)C(=O)N1)[C@@H](C)O)C(=O)N1CCC[C@H]1C(=O)N[C@@H](CO)C(=O)N[C@@H](CO)C(=O)N[C@H](C(=O)N[C@@H](CC(N)=O)C(=O)N[C@H](C(=O)NCC(=O)N[C@@H](CO)C(=O)N[C@@H](CC(N)=O)C(=O)N[C@H](C(=O)N[C@@H](Cc1ccc(O)cc1)C(N)=O)[C@@H](C)O)C(C)C)[C@@H](C)O, extended by one residue at the N-terminus; also called compound 46) [N^-1-[(4S)-4-carboxy-4-(19-carboxynonadecanoylamino)butanoyl]-Gly[Arg1,Arg17,Pro21,Pro27]-h-amylin]"
0.0204 µM,36.7,"KCNTATCATQRLAEFLRHSSPNFGAIPSSTNVGSNTY (C20 diacid-gGlu-2xOEG on the alpha amino group of the N-terminal residue; disulfide bridge Cys2-Cys7; C-terminal amide, also called compound 19)"
0.0148 µM,26.8,"K([AEEA-γGlu-C20 diacid])RCNTATCATQRLANFLRHSSPNFGAIPSSTNVGSHTY-NH2 (disulfide 3-8; N-terminus assumed; SMILES CC[C@H](C)[C@H](NC(=O)[C@H](C)NC(=O)CNC(=O)[C@H](Cc1ccccc1)NC(=O)[C@H](CC(N)=O)NC(=O)[C@@H]1CCCN1C(=O)[C@H](CO)NC(=O)[C@H](CO)NC(=O)[C@H](Cc1c[nH]cn1)NC(=O)[C@H](CCCNC(=N)N)NC(=O)[C@H](CC(C)C)NC(=O)[C@H](Cc1ccccc1)NC(=O)[C@H](CC(N)=O)NC(=O)[C@H](C)NC(=O)[C@H](CC(C)C)NC(=O)[C@H](CCCNC(=N)N)NC(=O)[C@H](CCC(N)=O)NC(=O)[C@@H](NC(=O)[C@H](C)NC(=O)[C@@H]1CSSC[C@H](NC(=O)[C@H](CCCNC(=N)N)NC(=O)[C@@H](N)CCCCNC(=O)COCCOCCNC(=O)CC[C@H](NC(=O)CCCCCCCCCCCCCCCCCCC(=O)O)C(=O)O)C(=O)N[C@@H](CC(N)=O)C(=O)N[C@@H]([C@@H](C)O)C(=O)N[C@@H](C)C(=O)N[C@@H]([C@@H](C)O)C(=O)N1)[C@@H](C)O)C(=O)N1CCC[C@H]1C(=O)N[C@@H](CO)C(=O)N[C@@H](CO)C(=O)N[C@H](C(=O)N[C@@H](CC(N)=O)C(=O)N[C@H](C(=O)NCC(=O)N[C@@H](CO)C(=O)N[C@@H](Cc1c[nH]cn1)C(=O)N[C@H](C(=O)N[C@@H](Cc1ccc(O)cc1)C(N)=O)[C@@H](C)O)C(C)C)[C@@H](C)O, extended by one residue at the N-terminus; also called compound 45)"
